Series [1] concerns the target AC296 (FIX-XTEN_AE864 that lacks an XTEN release site) (UniProt P00740).
The target of series [2] is AC300 (FIX-XTEN_AE864 with an XTEN release site specific for thrombin) (UniProt P00740).
Series [3] addresses AC299 (FIX-XTEN_AE864 with an XTEN release site specific for FXI) (UniProt P00740).
Series [4] has as its target hGHR-Fc (human) (UniProt P10912). In words: ELISA. In general terms: ELISA stands for enzyme-linked immunosorbent assay.
In series [5] the target is glucagon receptor (UniProt P47871 26-477, limits assumed). Kind of series: cell-based or functional assay.

Sequence of hGHR-Fc (human) (P10912 19-264): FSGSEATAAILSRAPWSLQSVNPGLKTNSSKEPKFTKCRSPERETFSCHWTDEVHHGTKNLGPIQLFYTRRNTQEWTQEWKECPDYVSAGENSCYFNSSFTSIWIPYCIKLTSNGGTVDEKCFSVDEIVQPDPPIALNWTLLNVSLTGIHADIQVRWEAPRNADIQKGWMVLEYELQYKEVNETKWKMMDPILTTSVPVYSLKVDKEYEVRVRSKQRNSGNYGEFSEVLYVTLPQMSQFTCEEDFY

With “immobilized thrombin (Thrombin CleanCleave Kit, RECOM-T, Sigma)”, the Clotting activity (ng/ng), with thrombin was 0.01 ng/ng in series [1], 0.8 ng/ng in series [2] and 0.02 ng/ng in series [3]. The term EC50 denotes the midpoint of the concentration-response curve. Read a low EC50 as higher potency in that assay. In the case of AE912-hGH-AE144, in series [4], the half-maximal effective concentration (EC50) was 16.2 nM.

B1: glucagon-Y288 (other)
chain: HSQGTFTSDYSKYLDSRRAQDFVQWLMNTGEGSGEGSEGEGSEGSGEGEGSEGSGEGEGGSEGSEGEGGSEGSEGEGGSEGSEGEGSGEGSEGEGGSEGSEGEGSGEGSEGEGSEGGSEGEGGSEGSEGEGSGEGSEGEGGEGGSEGEGSEGSGEGEGSGEGSEGEGSEGSGEGEGSGEGSEGEGSEGSGEGEGSEGSGEGEGGSEGSEGEGSEGSGEGEGGEGSGEGEGSGEGSEGEGGGEGSEGEGSGEGGEGEGSEGGSEGEGGSEGGEGEGSEGSGEGEGSEGGSEGEGSEGGSEGEGSEGSGEGEGSEGSGE
On to B1, for which the “EC50, real-time calcium mobilization (FLIPR)” value in series [5] came to 72 nM.

These data come from patent US20170037088A1 (published 2017).
